From patent EP1506972A1 (Genentech Inc., dated 2005)

Tests used:
Assay in all cases: competitive phage ELISA, soluble IGFBP-1 vs coated IGFBP-1
[1] = biological target: IGF-I Y24A (G1S-A70V background) displayed on phage (human; bacteriophage M13)
[2] = biological target: IGF-I N26A (G1S-A70V background) displayed on phage (human; bacteriophage M13)
[3] = biological target: IGF-I D20A (G1S-A70V background) displayed on phage (human; bacteriophage M13)
[4] = biological target: IGF-I S35A (G1S-A70V background) displayed on phage (human; bacteriophage M13)
[5] = biological target: IGF-I S34A (G1S-A70V background) displayed on phage (human; bacteriophage M13)
[6] = biological target: IGF-I R21A (G1S-A70V background) displayed on phage (human; bacteriophage M13)
[7] = biological target: IGF-I I43A (G1S-A70V background) displayed on phage (human; bacteriophage M13)
[8] = biological target: IGF-I G19A (G1S-A70V background) displayed on phage (human; bacteriophage M13)
[9] = biological target: IGF-I F25A (G1S-A70V background) displayed on phage (human; bacteriophage M13)
[10] = biological target: IGF-I R37A (G1S-A70V background) displayed on phage (human; bacteriophage M13)
[11] = biological target: IGF-I V44A (G1S-A70V background) displayed on phage (human; bacteriophage M13)
[12] = biological target: IGF-I G22A (G1S-A70V background) displayed on phage (human; bacteriophage M13)
[13] = biological target: IGF-I T41A (G1S-A70V background) displayed on phage (human; bacteriophage M13)
[14] = biological target: IGF-I F23A (G1S-A70V background) displayed on phage (human; bacteriophage M13)
[15] = biological target: IGF-I Q40A (G1S-A70V background) displayed on phage (human; bacteriophage M13)
[16] = biological target: Ala(1-3)-IGF-I, triple alanine mutant of the first three N-terminal amino acids, displayed on phage (human; bacteriophage M13)
[17] = biological target: IGF-I G42A (G1S-A70V background) displayed on phage (human; bacteriophage M13)
[18] = biological target: T1, IGF-I R50A (G1S-A70V background) displayed on phage (human; bacteriophage M13)
T1 construct: not shown: Display carrier: M13 gene III protein fragment (residues 249-406) and the junction to it
T1 chain: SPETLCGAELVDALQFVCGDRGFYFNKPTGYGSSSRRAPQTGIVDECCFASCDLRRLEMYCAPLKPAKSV

[19] = biological target: T2, IGF-I S33A (G1S-A70V background) displayed on phage (human; bacteriophage M13)
T2 construct: not shown: Display carrier: M13 gene III protein fragment (residues 249-406) and the junction to it
T2 chain: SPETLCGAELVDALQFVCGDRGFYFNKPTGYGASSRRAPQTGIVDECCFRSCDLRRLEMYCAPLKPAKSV

[20] = biological target: T3, IGF-I S1G (single mutant of G1S-A70V) displayed on phage (human; bacteriophage M13, UniProt P05019 49-117)
T3 construct: not shown: Display carrier: M13 gene III protein fragment (residues 249-406) and its junction to Val70

[21] = biological target: T4, IGF-I V17A (G1S-A70V background) displayed on phage (human; bacteriophage M13)
T4 construct: not shown: M13 gene III fragment (residues 249-406, display carrier) and the IGF-g3 junction
T4 chain: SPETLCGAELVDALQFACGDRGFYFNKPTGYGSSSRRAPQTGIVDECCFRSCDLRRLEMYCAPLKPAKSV

[22] = biological target: T5, IGF-I L64A (G1S-A70V background) displayed on phage (human; bacteriophage M13)
T5 construct: not shown: M13 gene III fragment (residues 249-406), the display partner, and its junction to IGF-I
T5 chain: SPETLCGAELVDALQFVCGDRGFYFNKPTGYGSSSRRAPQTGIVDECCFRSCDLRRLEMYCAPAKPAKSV

[23] = biological target: T6, IGF-I R56A (G1S-A70V background) displayed on phage (human; bacteriophage M13)
T6 construct: not shown: M13 gene III fragment (residues 249-406), the display partner, and its junction to IGF-I
T6 chain: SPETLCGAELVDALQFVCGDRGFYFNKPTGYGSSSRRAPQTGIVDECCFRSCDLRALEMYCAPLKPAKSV

B1: human IGFBP-1 (other, UniProt P08833 26-259, looked up)
chain: APWQCAPCSAEKLALCPPVSASCSEVTRSAGCGCCPMCALPLGAACGVATARCARGLSCRALPGEQQPLHALTRGQGACVQESDASAPHAAEAGSPESPESTEITEEELLDNFHLMAPSEEDHSILWDAISTYDGSKALHVTNIKKWKEPCRIELYRVVESLAKAQETSGEEISKFYLPNCNKNGFYHSRQCETSMDGEAGLCWCVYPWNGKRIPGSPEIRGDPNCQIYFNVQN
notes: Secreted recombinant protein
[1]
  IC50: 13.3 nM
  relative IC50 (IC50mut/IC50 G1S-A70V): 1.6 fold
[2]
  IC50: 9.1 nM
  relative IC50 (IC50mut/IC50 G1S-A70V): 1.1 fold
[3]
  IC50: 8.4 nM
  relative IC50 (IC50mut/IC50 G1S-A70V): 1 fold
[4]
  IC50: 11.7 nM
  relative IC50 (IC50mut/IC50 G1S-A70V): 1.4 fold
[5]
  IC50: 9.5 nM
  relative IC50 (IC50mut/IC50 G1S-A70V): 1.2 fold
[6]
  IC50: 7.1 nM
  relative IC50 (IC50mut/IC50 G1S-A70V): 0.9 fold
[7]
  IC50: 31.3 nM
  relative IC50 (IC50mut/IC50 G1S-A70V): 3.8 fold
[8]
  IC50: 11 nM
  relative IC50 (IC50mut/IC50 G1S-A70V): 1.3 fold
[9]
  IC50: 181 nM
  relative IC50 (IC50mut/IC50 G1S-A70V): 22.1 fold
[10]
  IC50: 12.3 nM
  relative IC50 (IC50mut/IC50 G1S-A70V): 1.5 fold
[11]
  IC50: 18.8 nM
  relative IC50 (IC50mut/IC50 G1S-A70V): 2.3 fold
[12]
  IC50: 15.9 nM
  relative IC50 (IC50mut/IC50 G1S-A70V): 1.9 fold
[13]
  IC50: 13.7 nM
  relative IC50 (IC50mut/IC50 G1S-A70V): 1.7 fold
[14]
  IC50: 10.9 nM
  relative IC50 (IC50mut/IC50 G1S-A70V): 1.3 fold
[15]
  IC50: 10.2 nM
  relative IC50 (IC50mut/IC50 G1S-A70V): 1.2 fold
[16]
  IC50: 90.4 nM
  relative IC50 (IC50mut/IC50 G1S-A70V): 11 fold
[17]
  IC50: 15.7 nM
  relative IC50 (IC50mut/IC50 G1S-A70V): 1.9 fold
[18]
  relative IC50 (IC50mut/IC50 G1S-A70V): 2 fold
[19]
  relative IC50 (IC50mut/IC50 G1S-A70V): 1.1 fold
[20]
  relative IC50 (IC50mut/IC50 G1S-A70V): 1.4 fold
[21]
  relative IC50 (IC50mut/IC50 G1S-A70V): 5.2 fold
[22]
  relative IC50 (IC50mut/IC50 G1S-A70V): 1.5 fold
[23]
  relative IC50 (IC50mut/IC50 G1S-A70V): 1.6 fold
